Results: the supplement of paper PMC9112550, “Optimization of the antimicrobial peptide Bac7 by deep mutational scanning” (BMC Biology, 2022)

test system: Escherichia coli TOP10; test: shrunken log2 fold change of peptide-encoding DNA abundance (4.5 h post-induction vs induction); higher = less antimicrobial activity (less host growth inhibition); settings: time post-induction: 4.5 h; library: site-saturation at positions 5, 18, 19, 20
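Note: peptides expressed intracellularly from a pBAD plasmid library in pooled LB shake-flask culture, induced with 0.3% L-arabinose, DNA abundance read by NGS, three biological replicates, DESeq2 with apeglm shrinkage.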

Sequence	shrunken log2 fold change
RRIRCRPPRLPRPRPRPQMAPRP	-0.117
RRIRARPPRLPRPRPRPQNLPRP	-0.564
RRIRWRPPRLPRPRPRPENEPRP	0.194
RRIRRRPPRLPRPRPRPGYDPRP	0.0506
RRIRYRPPRLPRPRPRPCADPRP	-0.21
RRIRYRPPRLPRPRPRPYISPRP	-0.00213
RRIRERPPRLPRPRPRPIFQPRP	-0.00561
RRIRVRPPRLPRPRPRPQRTPRP	-0.0863
RRIRWRPPRLPRPRPRPGQNPRP	0.134
RRIRARPPRLPRPRPRPHKLPRP	0.214
RRIRHRPPRLPRPRPRPWQHPRP	-0.0597
RRIRNRPPRLPRPRPRPFCNPRP	-0.126
RRIRPRPPRLPRPRPRPDMWPRP	-0.103
RRIRARPPRLPRPRPRPDNYPRP	0.0577
RRIRWRPPRLPRPRPRPATQPRP	0.105
RRIRLRPPRLPRPRPRPLDIPRP	-0.15
RRIRDRPPRLPRPRPRPKDGPRP	-0.0429
RRIRVRPPRLPRPRPRPGWFPRP	0.22
RRIRTRPPRLPRPRPRPMWEPRP	-0.0158
RRIRYRPPRLPRPRPRPSNWPRP	-0.385
RRIRERPPRLPRPRPRPMCYPRP	-0.403
RRIRCRPPRLPRPRPRPCAAPRP	0.514
RRIRKRPPRLPRPRPRPFSSPRP	-0.219
RRIRHRPPRLPRPRPRPTWDPRP	0.0552
RRIRHRPPRLPRPRPRPDRAPRP	0.217

Sequence	shrunken log2 fold change
RRIRKRPPRLPRPRPRPLGLPRP	0.159
RRIRHRPPRLPRPRPRPRLTPRP	-0.176
RRIRGRPPRLPRPRPRPGFGPRP	0.649
RRIRYRPPRLPRPRPRPITCPRP	0.014
RRIRKRPPRLPRPRPRPMYAPRP	-0.145
RRIRCRPPRLPRPRPRPLSGPRP	-0.0515
RRIRSRPPRLPRPRPRPCMVPRP	-0.511
RRIRRRPPRLPRPRPRPVANPRP	0.207
RRIRLRPPRLPRPRPRPYWPPRP	-0.518
RRIRSRPPRLPRPRPRPAKGPRP	0.176
RRIRARPPRLPRPRPRPHFQPRP	0.0811
RRIRKRPPRLPRPRPRPVGRPRP	0.21
RRIRYRPPRLPRPRPRPYFNPRP	-1.33
RRIRCRPPRLPRPRPRPGESPRP	0.107
RRIRFRPPRLPRPRPRPNYIPRP	-0.587
RRIRFRPPRLPRPRPRPYAMPRP	-0.686
RRIRCRPPRLPRPRPRPEGHPRP	0.38
RRIRERPPRLPRPRPRPMPCPRP	-0.0207
RRIRCRPPRLPRPRPRPVFSPRP	-0.385
RRIRLRPPRLPRPRPRPDRSPRP	-0.0286
RRIRERPPRLPRPRPRPSCSPRP	-0.412
RRIRLRPPRLPRPRPRPRCSPRP	0.0191
RRIRRRPPRLPRPRPRPRACPRP	0.352
RRIRYRPPRLPRPRPRPVDRPRP	-0.126
RRIRHRPPRLPRPRPRPFLLPRP	-0.502

Sequence	shrunken log2 fold change
RRIRFRPPRLPRPRPRPKMWPRP	0.348
RRIRRRPPRLPRPRPRPDAPPRP	0.888
RRIRIRPPRLPRPRPRPLVSPRP	-0.244
RRIRMRPPRLPRPRPRPTTKPRP	0.268
RRIRGRPPRLPRPRPRPFRPPRP	0.021
RRIRVRPPRLPRPRPRPNDPPRP	-0.0659
RRIRCRPPRLPRPRPRPTGEPRP	0.156
RRIRGRPPRLPRPRPRPICHPRP	0.378
RRIRMRPPRLPRPRPRPQMCPRP	-0.239
RRIRTRPPRLPRPRPRPRYMPRP	-0.62
RRIRPRPPRLPRPRPRPHVFPRP	-0.327
RRIRSRPPRLPRPRPRPPLQPRP	0.504
RRIRARPPRLPRPRPRPRPKPRP	0.916
RRIRKRPPRLPRPRPRPEHCPRP	0.0607
RRIRHRPPRLPRPRPRPGGVPRP	0.237
RRIRNRPPRLPRPRPRPQEFPRP	-0.0043
RRIRLRPPRLPRPRPRPPYPPRP	-0.0316
RRIRARPPRLPRPRPRPLPSPRP	0.353
RRIRGRPPRLPRPRPRPFEFPRP	-0.157
RRIRFRPPRLPRPRPRPAILPRP	0.0816
RRIRSRPPRLPRPRPRPRDLPRP	0.254
RRIRVRPPRLPRPRPRPFRLPRP	-0.267
RRIRQRPPRLPRPRPRPTILPRP	0.939
RRIRPRPPRLPRPRPRPAISPRP	-0.103
RRIRPRPPRLPRPRPRPDAQPRP	0.271
